Test results from patent publication US20210269525A1 (BIOCYTOGEN PHARMACEUTICALS BEIJING, published 2021).
Like-named read-outs stand apart in the source and are kept apart here.

T1: Cynomolgus CD3 epsilon Protein, His Tag (Acrobiosystems, Cat #CDE-05226) (cynomolgus (Macaca fascicularis), UniProt Q95LI5 22-117)
T1 construct: also called monkey CD3e; not shown: His tag
T1 sequence: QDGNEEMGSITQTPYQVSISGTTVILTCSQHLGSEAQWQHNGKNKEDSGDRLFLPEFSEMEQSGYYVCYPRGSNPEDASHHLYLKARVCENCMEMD


How the values were obtained:
[1] = biological target: T2, human CD3e (T-cell surface glycoprotein CD3 epsilon chain) (human, UniProt P07766 23-207); test: cell-based or functional assay
[2] = biological target: T3, Histidine-tagged human CD3e protein (human, UniProt P07766 23-126); test: SPR (Biacore), human CD3e
T3 construct: also called hCD3e-His; not shown: His tag

[3] = biological target: T2, human CD3e (T-cell surface glycoprotein …); test: flow cytometry, human PBMC, antibody 1 µg/mL, anti-human IgG Fc-Alexa Fluor647 (1:500), anti-hTcRβ-PerCP (1:30)
Protocol: (§1) PBMC cells were collected from a human subject. After being thawed, the cells were cultured for 3-4 hours. The medium was then discarded, and the cells were resuspended in phosphate-buffered saline (PBS). The cell concentration was then adjusted to 2×10⁶/25 μl PBS.
(§2) A 96-well plate was prepared. 25 ul of cell suspension was added to each well. […] The cells and the antibodies were incubated. After centrifuge, the residues were discarded. The samples were washed again. 25 ul of PBS was then added to each well to resuspend cells.
(§3) Anti-human IgG Fc-Alexa Fluror647 (1:500) and anit-hTcRβ PerCP (1:30) were then added to each well. The cells and the antibodies were incubated and then the cells were washed again by PBS. 300 ul of PBS was then added to each well to resuspend the cells. FACS was performed.

[4] = biological target: T2, human CD3e (T-cell surface glycoprotein …); test: flow cytometry, human PBMC, antibody 10 µg/mL, anti-human IgG Fc-Alexa Fluor647 (1:500), anti-hTcRβ-PerCP (1:30)
Protocol: as §1
A 96-well plate was prepared. 25 ul of cell suspension was added to each well. Anti-hCD3e antibodies with different combinations of humanized 1B1 heavy chain variants and humanized 1B1 light chain variants were diluted to 20 ug/ml (2×) in PBS, and were added to the 96-well plate. The cells and the antibodies were incubated. After centrifuge, the residues were discarded. The samples were washed again. 25 ul of PBS was then added to each well to resuspend cells.
as §3

[5] = biological target: T2, human CD3e (T-cell surface glycoprotein …); test: flow cytometry, human PBMC, antibody 0.1 µg/mL, anti-human IgG Fc-Alexa Fluor647 (1:500), anti-hTcRβ-PerCP (1:30)
Protocol: as §1, §2, §3

[6] = biological target: T4, monkey CD3e (Macaca fascicularis) on PBMC (Macaca fascicularis, UniProt Q95LI5 22-198); test: flow cytometry, Macaca fascicularis PBMC, antibody concentration not given, anti-human IgG Fc-Alexa Fluor647 (1:500), anti-hTcRβ-PerCP (1:30)
T4 construct: Target on PBMC from Macaca fascicularis; also called mfCD3e; monkey PBMC
Protocol: A 96-well plate was prepared. 25 ul of cell suspension was added to each well. Anti-hCD3 antibodies were added to the 96-well plate. The cells and the antibodies were incubated for 15 minutes at 4° C. 185 ul PBS was then added to each well. After centrifuge at 2000 rpm for 5 minutes, the medium was discarded. The samples were washed again. 25 ul of PBS was then added to resuspend cells.
Anti-human IgG Fc-Alexa Fluror647 (1:500) and anti-hTcRβ PerCP (1:30) were then added to each well. The cells and the antibodies were incubated for 15 minutes at 4° C. 185 ul PBS was then added to each well. After centrifuge, the residues were discarded. The samples were washed again. 25 ul of PBS was then added to resuspend cells. […] In contrast, anti-hTcRβ PerCP cannot bind to monkey PBMC.

[7] = biological target: T2, human CD3e (T-cell surface glycoprotein …); test: cell-based or functional assay; remark: listed apart in the source
[8] = biological target: T3, Histidine-tagged human CD3e protein; test: SPR (Biacore), human CD3e; remark: listed apart in the source
[9] = biological target: T1, Cynomolgus CD3 epsilon Protein, His Tag …; test: SPR (Biacore), cynomolgus CD3e His tag
Protocol: The binding affinity of the anti-hCD3e antibodies with monkey CD3e (Cynomolgus CD3 epsilon Protein (SEQ ID NO: 39 AA Gln 22-Asp 117), His Tag, Acrobiosystems, Cat #CDE-05226) were also measured using surface plasmon resonance (SPR) using Biacore (Biacore, INC, Piscataway N.J.) by the methods as described in the examples.

[10] = biological target: T2, human CD3e (T-cell surface glycoprotein …); test: flow cytometry, human PBMC, antibody 1 ug/mL, anti-human IgG Fc-Alexa Fluor647 (1:500), anti-hTcRβ-PerCP (1:30)
Protocol: as §1, §2, §3

[11] = biological target: T2, human CD3e (T-cell surface glycoprotein …); test: flow cytometry, human PBMC, antibody 0.1 ug/mL, anti-human IgG Fc-Alexa Fluor647 (1:500), anti-hTcRβ-PerCP (1:30)
Protocol: as §1, §2, §3

[12] = biological target: T2, human CD3e (T-cell surface glycoprotein …); test: flow cytometry, human PBMC, antibody 0.01 ug/mL, anti-human IgG Fc-Alexa Fluor647 (1:500), anti-hTcRβ-PerCP (1:30)
Protocol: as §1, §2, §3

| Binder | EC50, luciferase of Jurkat-Luc-NFAT cells; antibody from supernatant [1] | Kd [2] | koff [2] | kon [2] | upper left quadrant, percent of cells AF647+ / hTcRβ-PerCP- [3] | upper right quadrant, percent of cells AF647+ / hTcRβ-PerCP+ [3] | upper left quadrant, percent of cells AF647+ / hTcRβ-PerCP- [4] | upper right quadrant, percent of cells AF647+ / hTcRβ-PerCP+ [4] | upper left quadrant, percent of cells AF647+ / hTcRβ-PerCP- [5] | upper right quadrant, percent of cells AF647+ / hTcRβ-PerCP+ [5] | upper left quadrant, percent of cells AF647+ / hTcRβ-PerCP- [6] | upper right quadrant, percent of cells AF647+ / hTcRβ-PerCP+ [6] | EC50, luciferase of Jurkat-Luc-NFAT cells; antibody from supernatant [7] | EC50, luciferase of Jurkat-Luc-NFAT cells; purified antibody [7] | Kd [8] | koff [8] | kon [8] | Kd [9] | koff [9] | kon [9] | further results |
| --- | --- | --- | --- | --- | --- | --- | --- | --- | --- | --- | --- | --- | --- | --- | --- | --- | --- | --- | --- | --- | --- |
| 1B1-H3K1-IgG1-LALA (antibody, V domains shown, Humanized; human IgG1 with LALA mutations; also called H3K1 (humanized 1B1)) VH: QVQLVQSGAEVKKPGASVKLSCKASGYTFTSYWMHWVRQRHGQGLEWIGNIYPDSGTTNYGEKFKTRVTLTVDTSTSTAYMELSSLRSEDTAVYYCTRDTSGQYYFDYWGQGTLVTVSS VL: DIVMTQSPDSLAVSAGERATMNCKSSQSLLNSRTRKNYLAWYQHKPGQSPKLLIYWASTRESGVPDRFSGSGSGTDFTLTISSLQAEDVAVYYCVQSFSLRAFGGGTKVEIK | > 3.06 µg/mL | 1.37 nM | 0.000914 s⁻¹ | 665000 M⁻¹ s⁻¹ | 11% | 61.2% | 7.75% | 65.2% | 11.8% | 55.5% | 78.8% | 18.3% |  |  |  |  |  |  |  |  |  |
| 1B1-H4K1-IgG1-LALA (antibody, V domains shown, Humanized; human IgG1 with LALA mutations; also called H4K1 (humanized 1B1)) VH: QVQLVQSGAEVVKPGASVKLSCKASGYTFTSYWMHWVRQRHGQGLEWIGNIYPDSGTTNYGEKFKTRGTLTVDTSTSTAYMELSSLRSEDTAVYYCTRDTSGQYYFDYWGQGTLVTVSS VL: DIVMTQSPDSLAVSAGERATMNCKSSQSLLNSRTRKNYLAWYQHKPGQSPKLLIYWASTRESGVPDRFSGSGSGTDFTLTISSLQAEDVAVYYCVQSFSLRAFGGGTKVEIK | 2.4 µg/mL | 0.809 nM | 0.000653 s⁻¹ | 807000 M⁻¹ s⁻¹ | 10.2% | 64.4% | 8.51% | 64.1% | 13.1% | 54.1% | 78.5% | 18.3% |  |  |  |  |  |  |  |  |  |
| 1B1-H3K2-IgG1-LALA (antibody, V domains shown, Humanized; human IgG1 with LALA mutations; also called H3K2 (humanized 1B1)) VH: QVQLVQSGAEVKKPGASVKLSCKASGYTFTSYWMHWVRQRHGQGLEWIGNIYPDSGTTNYGEKFKTRVTLTVDTSTSTAYMELSSLRSEDTAVYYCTRDTSGQYYFDYWGQGTLVTVSS VL: DIVMTQSPDSLAVSAGERVTMNCKSSQSLLNSRTRKNYLAWYQHKPGQSPKLLIYWASTRESGVPDRFSGSGSGTDFTLTISSLQAEDVAVYYCVQSFSLRAFGGGTKVEIK | > 3.08 µg/mL | 2.96 nM | 0.00062 s⁻¹ | 209000 M⁻¹ s⁻¹ | 11.4% | 58.1% | 9.23% | 62% | 10.2% | 57.7% | 89.5% | 7.53% |  |  |  |  |  |  |  |  |  |
| 10A4-H2K3-IgG1-LALA (antibody, V domains shown, Humanized; human IgG1 with LALA mutations; also called H2K3 (humanized 10A4)) VH: QVQLVQSGAEVKKPGASVKISCKASGYTFTSYYIHWVRQAPGQRLEFIGWIYPGNVNAKYNEKFKGRATITTDKSASTAYMELSSLRSEDTAVYYCAIKGGNYDWGQGTLVTVSS VL: not shown |  |  |  |  |  |  |  |  |  |  | 51.1% | 2.59% | 0.416 µg/mL | 0.472 µg/mL | 1.38 nM | 8.85e-05 s⁻¹ | 63900 M⁻¹ s⁻¹ | 9.12 nM | 0.000497 s⁻¹ | 54500 M⁻¹ s⁻¹ | upper left quadrant, percent of cells AF647+ / hTcRβ-PerCP- [10]: 14.9%; upper right quadrant, percent of cells AF647+ / hTcRβ-PerCP+ [10]: 74.2%; upper left quadrant, percent of cells AF647+ / hTcRβ-PerCP- [11]: 7.13%; upper right quadrant, percent of cells AF647+ / hTcRβ-PerCP+ [11]: 45.6%; upper left quadrant, percent of cells AF647+ / hTcRβ-PerCP- [12]: 2.8%; upper right quadrant, percent of cells AF647+ / hTcRβ-PerCP+ [12]: 14.5% |
| 10A4-H1K2-IgG1-LALA (antibody, V domains shown, Humanized; human IgG1 with LALA mutations; also called H1K2 (humanized 10A4)) VH: QVQLVQSGAEVKKPGASVKVSCKASGYTFTSYYIHWVRQAPGQRLEFIGWIYPGNVNAKYNEKFKGRVTITTDKSASTAYMELSSLRSEDTAVYYCAIKGGNYDWGQGTLVTVSS VL: DVVMTQSPLSLPVTLGQPASISCQSSQSLLDSDGKTYLNWLQQRPGQSPRRLIYLVSKLGSGVPDRFSGSGSGTDFTLKISRVEAEDVGVYYCWQGTHFPRTFGGGTKLEIK |  |  |  |  |  |  |  |  |  |  | 47% | 2.56% | 0.272 µg/mL | 0.726 µg/mL | 2.14 nM | 0.000127 s⁻¹ | 59300 M⁻¹ s⁻¹ | 5.18 nM | 0.000298 s⁻¹ | 57500 M⁻¹ s⁻¹ | upper left quadrant, percent of cells AF647+ / hTcRβ-PerCP- [10]: 13.5%; upper right quadrant, percent of cells AF647+ / hTcRβ-PerCP+ [10]: 75.8%; upper left quadrant, percent of cells AF647+ / hTcRβ-PerCP- [11]: 10.8%; upper right quadrant, percent of cells AF647+ / hTcRβ-PerCP+ [11]: 57.8%; upper left quadrant, percent of cells AF647+ / hTcRβ-PerCP- [12]: 2.53%; upper right quadrant, percent of cells AF647+ / hTcRβ-PerCP+ [12]: 11.6% |
